Measurements: patent US20070232789A1 (UNIVERSITY OF MARYLAND BALTIMORE, published 2007)

Key:
[1] = target: T1, low-density lipoprotein receptor-related protein (LRP), purified (human, UniProt Q07954 20-4544); assay: heterologous ligand displacement: RAP varied, competitor 125I-fVIII (1 nM), LRP-coated microtiter wells
T1 construct: mature; also called low density lipoprotein receptor-related protein/α2-macroglobulin receptor; LRP receptor
Description: (§1) FIGS. 15A-15B. […] Each point represents the mean value of triplicates and the error bars display the standard deviation. The curves show a best fit of the data to a model describing heterologous ligand displacement from a single class of binding sites using the program LIGAND.
(§2) Solid-phase binding assays. […] Microtiter wells were coated with purified LRP or BSA (3 μg/ml) in 50 mM Tris, 0.15 M NaCl, pH 8.0, for 16 h and then blocked with 3% BSA in TBS. […] The radioactivity bound to the wells was counted using a γ-counter (Pharmacia). Affinity constants were derived from homologous and heterologous displacement data using the computer program LIGAND (Munson, P T and Rodbard, D. Anal. Biochem. 107:220-239 (1980)).

[2] = target: T1, low-density lipoprotein …; assay: heterologous displacement of ^125I-fVIII (1 nM) from LRP-coated wells
Description: as §1, §2

[3] = target: T1, low-density lipoprotein …; assay: competition: peptide 484-509 varied, competitor 125I-fVIII, LRP-coated microtiter wells
Description: FIGS. 17A-17B. […] The mean and standard deviation of the triplicate measurements are presented.
as §2

[4] = target: T1, low-density lipoprotein …; assay: heterologous displacement of ^125I-fVIII (1 nM) from immobilised LRP; HCh as unlabeled competitor
Description: as §2

[5] = target: T1, low-density lipoprotein …; assay: SPR, BIAcore 3000, one-site model, KD = koff/kon
Source text: (§3) Surface plasmon resonance-based binding assay. […] This system allows real-time biomolecular interaction analysis (BIA) using surface plasmon resonance (SPR) technology. One molecule (the ligand) is usually immobilized on the surface of the sensor chip; the second molecule (the analyte) in solution is passed over the chip under conditions of continuous flow, and the amount of the bound analyte is detected by the system. SPR is a non-invasive optical measuring technique which measures the mass concentration of biomolecules in close proximity to the sensor chip where association and dissociation of biomolecular complexes occurs. […] The association (kₒₙ) and dissociation (koff) rate constants were determined using BIAevaluation Version 3.1 software. The data were corrected for bulk refraction index changes and fitted to a one-site binding model by a non-linear regression analysis Equilibrium dissociation constants (KD) were calculated from the ratio koff/kₒₙ.

[6] = target: T2, A1/A3-C1-C2 heterodimer of factor VIII, plasma-derived (human, UniProt P00451 20-391; P00451 1709-2351); assay: cell-based or functional assay
T2 sequence 1: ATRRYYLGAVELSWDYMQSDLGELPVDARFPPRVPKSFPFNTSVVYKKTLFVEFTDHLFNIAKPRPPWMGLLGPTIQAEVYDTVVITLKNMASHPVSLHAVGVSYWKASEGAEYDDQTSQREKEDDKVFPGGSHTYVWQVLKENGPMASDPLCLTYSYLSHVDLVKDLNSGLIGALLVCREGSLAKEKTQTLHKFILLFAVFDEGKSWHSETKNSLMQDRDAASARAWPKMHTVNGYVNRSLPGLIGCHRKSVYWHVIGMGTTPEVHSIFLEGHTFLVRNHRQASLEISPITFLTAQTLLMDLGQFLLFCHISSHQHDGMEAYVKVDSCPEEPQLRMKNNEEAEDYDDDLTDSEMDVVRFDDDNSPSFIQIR
T2 sequence 2: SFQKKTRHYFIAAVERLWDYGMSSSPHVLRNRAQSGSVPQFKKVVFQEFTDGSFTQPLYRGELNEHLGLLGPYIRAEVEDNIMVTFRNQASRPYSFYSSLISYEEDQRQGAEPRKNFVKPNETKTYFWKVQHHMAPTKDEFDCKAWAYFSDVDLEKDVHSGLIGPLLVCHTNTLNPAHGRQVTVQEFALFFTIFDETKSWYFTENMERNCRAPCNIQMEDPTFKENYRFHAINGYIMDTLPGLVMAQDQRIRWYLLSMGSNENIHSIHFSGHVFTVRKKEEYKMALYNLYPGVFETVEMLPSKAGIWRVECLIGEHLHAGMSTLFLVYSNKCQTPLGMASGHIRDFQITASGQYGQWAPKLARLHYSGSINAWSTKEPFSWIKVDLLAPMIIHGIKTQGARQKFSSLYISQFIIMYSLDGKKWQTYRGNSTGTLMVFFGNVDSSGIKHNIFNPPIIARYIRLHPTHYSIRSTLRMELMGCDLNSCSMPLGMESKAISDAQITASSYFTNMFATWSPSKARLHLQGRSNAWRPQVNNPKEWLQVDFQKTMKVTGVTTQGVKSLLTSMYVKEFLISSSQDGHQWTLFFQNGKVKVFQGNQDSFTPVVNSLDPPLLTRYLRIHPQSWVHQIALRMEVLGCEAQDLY

[7] = target: T1, low-density lipoprotein …; assay: SPR, BIAcore 3000
Source text: as §3

T1 sequence (Q07954 20-4544, form in doubt): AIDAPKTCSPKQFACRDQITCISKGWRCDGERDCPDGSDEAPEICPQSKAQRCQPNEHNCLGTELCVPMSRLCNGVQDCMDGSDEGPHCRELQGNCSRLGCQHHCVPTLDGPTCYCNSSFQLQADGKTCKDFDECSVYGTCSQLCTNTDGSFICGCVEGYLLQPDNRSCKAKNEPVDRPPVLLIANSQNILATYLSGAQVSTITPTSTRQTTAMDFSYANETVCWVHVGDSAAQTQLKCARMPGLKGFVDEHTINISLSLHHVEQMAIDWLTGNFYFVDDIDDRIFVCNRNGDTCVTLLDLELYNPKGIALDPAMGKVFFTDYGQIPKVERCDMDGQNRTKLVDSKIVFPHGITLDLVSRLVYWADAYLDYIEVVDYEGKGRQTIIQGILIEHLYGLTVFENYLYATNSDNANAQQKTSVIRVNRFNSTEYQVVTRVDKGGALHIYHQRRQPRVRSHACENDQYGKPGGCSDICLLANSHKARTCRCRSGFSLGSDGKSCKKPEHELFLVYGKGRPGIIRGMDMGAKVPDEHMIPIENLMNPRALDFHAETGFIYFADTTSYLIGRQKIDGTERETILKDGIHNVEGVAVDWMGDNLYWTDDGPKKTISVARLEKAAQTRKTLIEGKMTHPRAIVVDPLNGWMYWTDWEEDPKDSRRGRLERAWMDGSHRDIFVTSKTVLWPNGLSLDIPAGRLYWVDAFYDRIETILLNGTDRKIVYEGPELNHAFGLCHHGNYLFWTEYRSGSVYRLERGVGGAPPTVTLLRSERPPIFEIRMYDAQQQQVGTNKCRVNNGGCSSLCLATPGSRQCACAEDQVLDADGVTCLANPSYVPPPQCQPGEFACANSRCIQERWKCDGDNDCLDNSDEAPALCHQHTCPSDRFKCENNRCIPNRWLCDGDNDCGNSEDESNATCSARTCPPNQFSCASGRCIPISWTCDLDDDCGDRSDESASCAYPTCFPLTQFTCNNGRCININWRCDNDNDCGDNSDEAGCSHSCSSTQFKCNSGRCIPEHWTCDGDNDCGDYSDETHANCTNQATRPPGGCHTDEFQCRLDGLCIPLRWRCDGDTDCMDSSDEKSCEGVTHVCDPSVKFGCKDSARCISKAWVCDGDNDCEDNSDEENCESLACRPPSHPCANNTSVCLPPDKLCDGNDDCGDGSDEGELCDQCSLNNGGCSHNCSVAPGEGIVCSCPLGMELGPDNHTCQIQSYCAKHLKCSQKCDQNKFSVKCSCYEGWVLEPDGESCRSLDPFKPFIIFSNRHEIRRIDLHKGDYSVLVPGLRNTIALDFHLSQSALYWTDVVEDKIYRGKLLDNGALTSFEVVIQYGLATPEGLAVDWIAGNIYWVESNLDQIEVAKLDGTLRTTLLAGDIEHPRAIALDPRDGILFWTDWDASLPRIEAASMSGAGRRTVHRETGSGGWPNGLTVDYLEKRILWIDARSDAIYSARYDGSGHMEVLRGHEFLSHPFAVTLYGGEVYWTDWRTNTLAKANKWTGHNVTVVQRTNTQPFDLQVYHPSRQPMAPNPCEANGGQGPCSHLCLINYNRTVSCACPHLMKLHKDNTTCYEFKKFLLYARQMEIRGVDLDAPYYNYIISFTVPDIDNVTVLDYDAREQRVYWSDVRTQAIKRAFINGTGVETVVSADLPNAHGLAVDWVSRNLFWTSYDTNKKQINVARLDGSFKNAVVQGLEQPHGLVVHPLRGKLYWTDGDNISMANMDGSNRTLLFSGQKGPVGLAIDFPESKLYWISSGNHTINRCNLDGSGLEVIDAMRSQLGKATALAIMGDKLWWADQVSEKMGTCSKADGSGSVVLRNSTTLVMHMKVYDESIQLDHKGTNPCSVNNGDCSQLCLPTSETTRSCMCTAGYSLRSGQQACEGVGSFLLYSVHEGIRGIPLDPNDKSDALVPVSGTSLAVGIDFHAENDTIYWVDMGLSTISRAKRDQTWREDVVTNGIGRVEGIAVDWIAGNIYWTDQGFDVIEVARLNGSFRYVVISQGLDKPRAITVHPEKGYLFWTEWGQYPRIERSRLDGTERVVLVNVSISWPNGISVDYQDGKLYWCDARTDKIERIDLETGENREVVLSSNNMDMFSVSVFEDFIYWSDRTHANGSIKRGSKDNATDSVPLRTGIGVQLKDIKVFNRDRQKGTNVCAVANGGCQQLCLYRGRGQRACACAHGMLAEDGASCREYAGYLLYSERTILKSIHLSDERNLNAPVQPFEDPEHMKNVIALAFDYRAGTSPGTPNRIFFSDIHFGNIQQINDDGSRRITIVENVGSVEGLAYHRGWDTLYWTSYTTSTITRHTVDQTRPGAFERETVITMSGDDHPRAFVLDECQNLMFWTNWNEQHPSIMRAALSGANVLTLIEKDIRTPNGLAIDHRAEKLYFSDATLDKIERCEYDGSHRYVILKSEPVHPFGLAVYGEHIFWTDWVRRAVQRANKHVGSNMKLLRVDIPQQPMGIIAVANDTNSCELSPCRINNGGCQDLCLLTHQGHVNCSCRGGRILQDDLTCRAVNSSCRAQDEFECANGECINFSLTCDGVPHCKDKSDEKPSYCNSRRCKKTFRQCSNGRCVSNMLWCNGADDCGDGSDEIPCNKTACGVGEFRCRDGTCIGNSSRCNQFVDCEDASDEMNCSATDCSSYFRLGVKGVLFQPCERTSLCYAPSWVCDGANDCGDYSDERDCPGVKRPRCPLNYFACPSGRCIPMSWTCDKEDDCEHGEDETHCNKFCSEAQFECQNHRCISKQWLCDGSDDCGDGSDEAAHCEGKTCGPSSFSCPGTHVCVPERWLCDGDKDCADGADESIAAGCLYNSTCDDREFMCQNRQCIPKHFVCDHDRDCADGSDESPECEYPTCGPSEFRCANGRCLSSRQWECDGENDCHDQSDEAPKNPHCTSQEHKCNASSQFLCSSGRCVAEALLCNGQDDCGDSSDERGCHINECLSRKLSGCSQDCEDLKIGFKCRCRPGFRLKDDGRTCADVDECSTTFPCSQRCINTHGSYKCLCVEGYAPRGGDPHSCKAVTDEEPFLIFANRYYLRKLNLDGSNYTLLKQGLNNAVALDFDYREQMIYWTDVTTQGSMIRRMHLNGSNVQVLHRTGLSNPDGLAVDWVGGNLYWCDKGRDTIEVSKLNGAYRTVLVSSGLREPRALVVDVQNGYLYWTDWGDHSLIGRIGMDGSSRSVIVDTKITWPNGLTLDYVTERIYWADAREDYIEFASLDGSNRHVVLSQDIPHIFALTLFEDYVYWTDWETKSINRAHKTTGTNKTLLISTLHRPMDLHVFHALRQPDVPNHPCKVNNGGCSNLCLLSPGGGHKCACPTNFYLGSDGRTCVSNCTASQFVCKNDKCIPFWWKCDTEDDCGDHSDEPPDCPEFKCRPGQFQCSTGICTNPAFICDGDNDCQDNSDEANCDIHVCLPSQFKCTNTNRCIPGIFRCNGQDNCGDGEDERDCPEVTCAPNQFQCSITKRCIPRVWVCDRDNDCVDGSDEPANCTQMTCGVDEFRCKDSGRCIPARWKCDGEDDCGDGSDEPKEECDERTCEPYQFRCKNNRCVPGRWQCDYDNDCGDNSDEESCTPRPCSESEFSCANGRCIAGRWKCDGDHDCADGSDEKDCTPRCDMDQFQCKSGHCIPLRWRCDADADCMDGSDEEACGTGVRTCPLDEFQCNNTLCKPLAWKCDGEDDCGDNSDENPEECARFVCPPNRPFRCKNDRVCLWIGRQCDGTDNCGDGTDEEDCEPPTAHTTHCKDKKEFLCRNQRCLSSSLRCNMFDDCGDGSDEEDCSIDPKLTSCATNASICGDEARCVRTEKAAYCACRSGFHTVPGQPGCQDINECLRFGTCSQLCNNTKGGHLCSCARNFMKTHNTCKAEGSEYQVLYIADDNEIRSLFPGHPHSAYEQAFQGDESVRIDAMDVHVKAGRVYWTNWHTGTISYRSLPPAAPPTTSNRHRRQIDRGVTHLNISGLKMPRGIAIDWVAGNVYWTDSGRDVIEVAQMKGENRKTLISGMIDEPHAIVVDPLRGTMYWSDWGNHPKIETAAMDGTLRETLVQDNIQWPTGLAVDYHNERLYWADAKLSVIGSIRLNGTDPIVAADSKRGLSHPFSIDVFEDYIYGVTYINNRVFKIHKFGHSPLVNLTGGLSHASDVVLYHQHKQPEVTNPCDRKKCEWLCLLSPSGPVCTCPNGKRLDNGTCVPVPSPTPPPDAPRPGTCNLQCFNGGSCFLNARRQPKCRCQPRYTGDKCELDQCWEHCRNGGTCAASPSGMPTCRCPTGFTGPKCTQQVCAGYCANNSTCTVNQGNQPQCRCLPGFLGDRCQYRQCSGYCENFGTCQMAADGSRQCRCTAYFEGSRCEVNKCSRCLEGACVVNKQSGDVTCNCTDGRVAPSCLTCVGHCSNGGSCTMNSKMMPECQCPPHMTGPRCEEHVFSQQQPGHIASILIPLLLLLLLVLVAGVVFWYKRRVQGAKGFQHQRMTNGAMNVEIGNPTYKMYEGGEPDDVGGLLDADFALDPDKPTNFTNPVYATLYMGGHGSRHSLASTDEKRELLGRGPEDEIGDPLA

B1: 39 kDa receptor-associated protein (RAP), human, expressed in bacteria (other)
chain: YSREKNQPKPSPKRESGEEFRMEKLNQLWEKAQRLHLPPVRLAELHADLKIQERDELAWKKLKLDGLDEDGEKEARLIRNLNVILAKYGLDGKKDARQVTSNSLSGTQEDGLDDPRLEKLWHKAKTSGKFSGEELDKLWREFLHHKEKVHEYNVLLETLSRTEEIHENVISPSDLSDIKGSVLHSRHTELKEKLRSINQGLDRLRRVSHQGYSTEAEFEEPRVIDLWDLAQSANLTDKELEAFREELKHFEAKIEKHNHYQKQLEIAHEKLRHAESVGDGERVSRSREKHALLEGRTKELGYTVKKHLQDLSGRISRARHNEL
notes: also called α2 macroglobulin receptor-associated protein
[1]
  IC50 (read off the curve): ~2 nM
[2]
  Ki: 2.5 nM

B2: synthetic A2 domain peptide 484-509 (peptide)
peptide: RPLYSRRLPKGVKHLKDFPILPGEIF
[3]
  IC50 (read off the curve): ~1000 nM

B3: heavy chain of factor VIII (HCh) (other)
chain: ATRRYYLGAVELSWDYMQSDLGELPVDARFPPRVPKSFPFNTSVVYKKTLFVEFTDHLFNIAKPRPPWMGLLGPTIQAEVYDTVVITLKNMASHPVSLHAVGVSYWKASEGAEYDDQTSQREKEDDKVFPGGSHTYVWQVLKENGPMASDPLCLTYSYLSHVDLVKDLNSGLIGALLVCREGSLAKEKTQTLHKFILLFAVFDEGKSWHSETKNSLMQDRDAASARAWPKMHTVNGYVNRSLPGLIGCHRKSVYWHVIGMGTTPEVHSIFLEGHTFLVRNHRQASLEISPITFLTAQTLLMDLGQFLLFCHISSHQHDGMEAYVKVDSCPEEPQLRMKNNEEAEDYDDDLTDSEMDVVRFDDDNSPSFIQIRSVAKKHPKTWVHYIAAEEEDWDYAPLVLAPDDRSYKSQYLNNGPQRIGRKYKKVRFMAYTDETFKTREAIQHESGILGPLLYGEVGDTLLIIFKNQASRPYNIYPHGITDVRPLYSRRLPKGVKHLKDFPILPGEIFKYKWTVTVEDGPTKSDPRCLTRYYSSFVNMERDLASGLIGPLLICYKESVDQRGNQIMSDKRNVILFSVFDENRSWYLTENIQRFLPNPAGVQLEDPEFQASNIMHSINGYVFDSLQLSVCLHEVAYWYILSIGAQTDFLSVFFSGYTFKHKMVYEDTLTLFPFSGETVFMSMENPGLWILGCHNSDFRNRGMTALLKVSSCDKNTGDYYEDSYEDISAYLLSKNNAIEPRSFSQNSRHRSTRQKQFNATTIPENDIEKTDPWFAHRTPMPKIQNVSSSDLLMLLRQSPTPHGLSLSDLQEAKYETFSDDPSPGAIDSNNSLSEMTHFRPQLHHSGDMVFTPESGLQLRLNEKLGTTAATELKKLDFKVSSTSNNLISTIPSDNLAAGTDNTSSLGPPSMPVHYDSQLDTTLFGKKSSPLTESGGPLSLSEENNDSKLLESGLMNSQESSWGKNVSSTESGRLFKGKRAHGPALLTKDNALFKVSISLLKTNKTSNNSATNRKTHIDGPSLLIENSPSVWQNILESDTEFKKVTPLIHDRMLMDKNATALRLNHMSNKTTSSKNMEMVQQKKEGPIPPDAQNPDMSFFKMLFLPESARWIQRTHGKNSLNSGQGPSPKQLVSLGPEKSVEGQNFLSEKNKVVVGKGEFTKDVGLKEMVFPSSRNLFLTNLDNLHENNTHNQEKKIQEEIEKKETLIQENVVLPQIHTVTGTKNFMKNLFLLSTRQNVEGSYDGAYAPVLQDFRSLNDSTNRTKKHTAHFSKKGEEENLEGLGNQTKQIVEKYACTTRISPNTSQQNFVTQRSKRALKQFRLPLEETELEKRIIVDDTSTQWSKNMKHLTPSTLTQIDYNEKEKGAITQSPLSDCLTRSHSIPQANRSPLPIAKVSSFPSIRPIYLTRVLFQDNSSHLPAASYRKKDSGVQESSHFLQGAKKNNLSLAILTLEMTGDQREVGSLGTSATNSVTYKKVENTVLPKPDLPKTSGKVELLPKVHIYQKDLFPTETSNGSPGHLDLVEGSLLQGTEGAIKWNEANRPGKVPFLRVATESSAKTPSKLLDPLAWDNHYGTQIPKEEWKSQEKSPEKTAFKKKDTILSLNACESNHAIAAINEGQNKPEIEVTWAKQGRTERLCSQNPPVLKRHQR
notes: Prepared from plasma-derived fVIII
[4]
  Ki: 120 nM

B4: recombinant A2 mutant #8 (Tyr-487 to Ala) (other)
chain: SGAKKHPKTWVHYIAAEEEDWDYAPLVLAPDDRSYKSQYLNNGPQRIGRKYKKVRFMAYTDETFKTREAIQHESGILGPLLYGEVGDTLLIIFKNQASRPYNIYPHGITDVRPLASRRLPKGVKHLKDFPILPGEIFKYKWTVTVEDGPTKSDPRCLTRYYSSFVNMERDLASGLIGPLLICYKESVDQRGNQIMSDKRNVILFSVFDENRSWYLTENIQRFLPNPAGVQLEDPEFQASNIMHSINGYVFDSLQLSVCLHEVAYWYILSIGAQTDFLSVFFSGYTFKHKMVYEDTLTLFPFSGETVFMSMENPGLWILGCHNSDFRNRGMTALLKVSSCDKNTGDYYEDSYEDISAYLLSKNNAIEPR
notes: hx-A2 form from Sf9 cells
[5]
  Kd: 97 nM
[6]
  Activity of reconstituted FVIIIa (% of wt activity): 87.9 % of wt activity
[7]
  fold decrease of affinity against wt-A2: 5 fold

B5: recombinant A2 mutant #20 (Lys-556 to Ala) (other)
chain: SGAKKHPKTWVHYIAAEEEDWDYAPLVLAPDDRSYKSQYLNNGPQRIGRKYKKVRFMAYTDETFKTREAIQHESGILGPLLYGEVGDTLLIIFKNQASRPYNIYPHGITDVRPLYSRRLPKGVKHLKDFPILPGEIFKYKWTVTVEDGPTKSDPRCLTRYYSSFVNMERDLASGLIGPLLICYAESVDQRGNQIMSDKRNVILFSVFDENRSWYLTENIQRFLPNPAGVQLEDPEFQASNIMHSINGYVFDSLQLSVCLHEVAYWYILSIGAQTDFLSVFFSGYTFKHKMVYEDTLTLFPFSGETVFMSMENPGLWILGCHNSDFRNRGMTALLKVSSCDKNTGDYYEDSYEDISAYLLSKNNAIEPR
notes: hx-A2 form from Sf9 cells; not shown: N-terminal hx leader (6xHis tag, vector-derived linker, factor Xa site)
[5]
  Kd: 33 nM
[6]
  Activity of reconstituted FVIIIa (% of wt activity): 196 % of wt activity

B6: recombinant A2 mutant #19 (Lys-523 to Ala) (other)
chain: SGAKKHPKTWVHYIAAEEEDWDYAPLVLAPDDRSYKSQYLNNGPQRIGRKYKKVRFMAYTDETFKTREAIQHESGILGPLLYGEVGDTLLIIFKNQASRPYNIYPHGITDVRPLYSRRLPKGVKHLKDFPILPGEIFKYKWTVTVEDGPTASDPRCLTRYYSSFVNMERDLASGLIGPLLICYKESVDQRGNQIMSDKRNVILFSVFDENRSWYLTENIQRFLPNPAGVQLEDPEFQASNIMHSINGYVFDSLQLSVCLHEVAYWYILSIGAQTDFLSVFFSGYTFKHKMVYEDTLTLFPFSGETVFMSMENPGLWILGCHNSDFRNRGMTALLKVSSCDKNTGDYYEDSYEDISAYLLSKNNAIEPR
notes: as for B5
[5]
  Kd: 41 nM
[6]
  Activity of reconstituted FVIIIa (% of wt activity): 390 % of wt activity

B7: recombinant A2 mutant #10 (Arg-489 to Ala) (other)
chain: SGAKKHPKTWVHYIAAEEEDWDYAPLVLAPDDRSYKSQYLNNGPQRIGRKYKKVRFMAYTDETFKTREAIQHESGILGPLLYGEVGDTLLIIFKNQASRPYNIYPHGITDVRPLYSARLPKGVKHLKDFPILPGEIFKYKWTVTVEDGPTKSDPRCLTRYYSSFVNMERDLASGLIGPLLICYKESVDQRGNQIMSDKRNVILFSVFDENRSWYLTENIQRFLPNPAGVQLEDPEFQASNIMHSINGYVFDSLQLSVCLHEVAYWYILSIGAQTDFLSVFFSGYTFKHKMVYEDTLTLFPFSGETVFMSMENPGLWILGCHNSDFRNRGMTALLKVSSCDKNTGDYYEDSYEDISAYLLSKNNAIEPR
notes: hx-A2 form from Sf9 cells
[5]
  Kd: 150 nM
[6]
  Activity of reconstituted FVIIIa (% of wt activity): 130 % of wt activity
[7]
  fold decrease of affinity against wt-A2: 7 fold
